Data taken from publication PMC7005674.

Target: T1, Rap1-Halo (Saccharomyces cerevisiae) (UniProt P11938)
T1 sequence: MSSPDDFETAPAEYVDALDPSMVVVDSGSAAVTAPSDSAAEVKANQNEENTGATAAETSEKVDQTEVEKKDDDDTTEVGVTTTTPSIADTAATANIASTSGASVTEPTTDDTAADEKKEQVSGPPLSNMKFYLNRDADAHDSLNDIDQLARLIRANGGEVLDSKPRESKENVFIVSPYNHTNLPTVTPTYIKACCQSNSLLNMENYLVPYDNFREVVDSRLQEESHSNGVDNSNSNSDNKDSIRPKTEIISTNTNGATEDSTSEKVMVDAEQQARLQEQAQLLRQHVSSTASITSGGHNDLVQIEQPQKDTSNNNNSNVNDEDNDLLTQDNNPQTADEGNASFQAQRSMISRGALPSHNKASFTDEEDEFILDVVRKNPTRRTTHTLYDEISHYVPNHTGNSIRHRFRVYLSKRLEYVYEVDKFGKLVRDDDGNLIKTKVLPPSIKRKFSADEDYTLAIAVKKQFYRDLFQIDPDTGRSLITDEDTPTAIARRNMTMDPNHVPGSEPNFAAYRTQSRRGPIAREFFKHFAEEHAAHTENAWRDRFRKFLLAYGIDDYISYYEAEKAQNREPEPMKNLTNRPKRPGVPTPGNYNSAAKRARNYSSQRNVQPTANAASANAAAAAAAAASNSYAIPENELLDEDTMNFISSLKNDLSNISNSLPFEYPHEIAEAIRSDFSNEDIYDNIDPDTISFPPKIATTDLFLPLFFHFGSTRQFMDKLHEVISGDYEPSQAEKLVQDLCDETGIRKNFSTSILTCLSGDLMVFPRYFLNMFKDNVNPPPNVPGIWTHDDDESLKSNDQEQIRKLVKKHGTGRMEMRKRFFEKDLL
Assay: EMSA
Settings: EMSA (DNA): 50 mM HEPES pH 7.5, 130 mM KCl, 10% glycerol, 0.005% Tween 20, 2 mM Trolox, 3.2% glucose, 50 ng/ul poly-d(I-C), 10 min, room temperature; smTIRF …

Sequence	Kd
CACACTGTGCCAAGTACTTACGCGGCCGCCCTGGAGAATCCCGGTGCCGTACATCTGTGCACCGTCGTAGACAGCTCTAGCACCGCTTAAACGCACGTACGCGCTGTCCCCCGCGTTTTAACCGCCAAGGGGATTACTCCCTAGTCTCCAGGCACGTGTCAGATACTGCAGAGATCTCTAGATCCATGGAGTACTTGGTCTCAAACC (double strand) [MN S1]	76.4 nM
CACACTGTGCCAAGTACTTACGCGGCCGCCCTGGAGAATCCCGGTGCCGAGGCCGTACATCTGTGCACCGACAGCTCTAGCACCGCTTAAACGCACGTACGCGCTGTCCCCCGCGTTTTAACCGCCAAGGGGATTACTCCCTAGTCTCCAGGCACGTGTCAGATACTGCAGAGATCTCTAGATCCATGGAGTACTTGGTCTCAAACC (double strand) [MN S1+6]	62.7 nM
CACACTGTGCCAAGTACTTACGCGGCCGCCCTGGAGAATCCCGGTGCCGAGGTACATCTGTGCACCGTAGACAGCTCTAGCACCGCTTAAACGCACGTACGCGCTGTCCCCCGCGTTTTAACCGCCAAGGGGATTACTCCCTAGTCTCCAGGCACGTGTCAGATACTGCAGAGATCTCTAGATCCATGGAGTACTTGGTCTCAAACC (double strand) [MN S1+3]	48.5 nM
